According to patent publication US20040248807A1:

Legend:
Human γ-thrombin (human) = Human γ-thrombin (human) (UniProt P00734); assay: fluorescence polarization, fluoresceinated peptide titrated with γ-thrombin
Human α-thrombin (human) [1] = molecular target: Human α-thrombin (human) (UniProt P00734); assay: fluorescence polarization, 2 nM fluoresceinated peptide titrated with α-thrombin
Human α-thrombin (human) [2] = molecular target: Human α-thrombin (human) (UniProt P00734); assay: fluorescence polarization competition against 2 nM fluoresceinated γ′408-427 phosphorylated peptide, 2 µM α-thrombin

fluoresceinated γ′408-427 peptide, …-Y(PO3)-DSL-Y(PO3)-PEDDL, sequence (P02679 434-453): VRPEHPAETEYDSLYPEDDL

Row | Substance | Kd (Human γ-thrombin (human)) [nM] | Kd (Human α-thrombin (human) [1]) [nM] | Ki (Human α-thrombin (human) [2]) [nM]
1 | fluoresceinated γ′408-427 peptide, …-Y(PO3)-DSL-Y(PO3)-PEDDL | 610 | 430 | –
2 | γ′408-427 peptide, doubly phosphorylated, unlabeled, …-Y(PO3)-DSL-Y(PO3)-PEDDL | – | – | 520
